Assay [1] concerns the target HLA-B*40:01. Description: IEDB peptide-MHC binding, purified MHC/direct/fluorescence; filed as Kd, often an IC50 or EC50 that approximates it; ≥ and ≤ were set here for values at or beyond the usual limits of such assays. Particulars: source organism: Giardia lamblia ATCC 50803.
In a further assay the target is HLA-B*44:02. Described as above. Particulars: source organism: Giardia lamblia ATCC 50803.
Assay [2] deals with HLA-B*15:01. Described as above. The note with it: source organism: Giardia lamblia ATCC 50803.
The next assay concerns the target HLA-A*03:01. Described as above. Particulars: source organism: Giardia lamblia ATCC 50803.
For a further assay, the target named is HLA-A*02:01. Described as above. Particulars: source organism: Giardia lamblia ATCC 50803.
Assay [3] addresses HLA-A*26:01. Described as above. The note with it: source organism: Giardia lamblia ATCC 50803.
For the next assay, the target named is HLA-A*69:01. The description is as above. The note with it: source organism: Giardia lamblia ATCC 50803.
Another assay deals with HLA-A*24:03. Described as above. Particulars: source organism: Giardia lamblia ATCC 50803.
A further assay has as its target HLA-A*11:01. The assay is described as above. The note with it: source organism: Giardia lamblia ATCC 50803.
The next assay deals with HLA-B*27:05. The assay is described as above. The note with it: source organism: Giardia lamblia ATCC 50803.
For assay [4], the target named is HLA-A*01:01. The description is as above. The note with it: source organism: Giardia lamblia ATCC 50803.
The target of another assay is HLA-B*08:01. The description is as above. The note with it: source organism: Giardia lamblia ATCC 50803.
In a further assay the target is HLA-B*58:01. The assay is described as above. Particulars: source organism: Giardia lamblia ATCC 50803.
The next assay deals with HLA-A*31:01. Described as above. The note with it: source organism: Giardia lamblia ATCC 50803.
The target in assay [5] is HLA-B*15:01. Nature of the assay: IEDB peptide-MHC binding, purified MHC/competitive/fluorescence; filed as Kd, often an IC50 or EC50 that approximates it; ≥ and ≤ were set here for values at or beyond the usual limits of such assays. Particulars: source organism: Bacillus cereus G9241.
A further assay has as its target HLA-A*30:02. Nature of the assay: IEDB peptide-MHC binding, purified MHC/competitive/radioactivity; filed as Kd, often an IC50 or EC50 that approximates it; ≥ and ≤ were set here for values at or beyond the usual limits of such assays.
For assay [6], the target named is HLA-A*26:01. The description is as above.
Another assay deals with HLA-A*24:02. The assay is described as above.
In another assay the target is HLA-A*23:01. The description is as above.
The next assay concerns the target HLA-A*29:02. Described as above.
The target of assay [7] is HLA-A*01:01. Described as above.
In assay [8] the target is HLA-B*40:01. The assay is described as above.
[9] abbreviates: source organism: Lassa virus Josiah.
Where [10] appears, read: source organism: Mammarenavirus juninense.
Setting [11] is: source organism: Dengue virus 2 Jamaica/1409/1983.
Where [12] appears, read: source organism: SARS coronavirus Tor2.

pKd: −log10 of the molar value.

Experimental findings from the Immune Epitope Database (IEDB) are described below.

For orientation: pKd means −log10 of the Kd, conventionally taken in molar units. As for PPQATAKYL, the pKd in the assay with HLA-B*40:01 [1], with HLA-B*44:02, with HLA-B*15:01 [2], with HLA-A*03:01, with HLA-A*02:01 and with HLA-A*26:01 [3] was not above 4.70 each time. Besides, the pKd was not above 4.70 with HLA-A*69:01; 5.02 with HLA-A*24:03; not above 4.70 with HLA-A*11:01; not above 4.70 with HLA-B*27:05; not above 4.70 with HLA-A*01:01 [4]; not above 4.70 in the assay with HLA-B*08:01. Further, the negative-log Kd (pKd) with HLA-B*58:01 and with HLA-A*31:01 was not above 4.70 each time.
The sequence RKIKAITSF had a pKd with HLA-B*15:01 [5] of 5.73.
With RYYDGNIYDL, the pKd with HLA-A*30:02 (source organism: Variola virus) was 7.82; in the assay with HLA-A*26:01 [6] (source organism: Variola virus), not above 4.16; in the assay with HLA-A*24:02 (source organism: Variola virus), 7.06; in the assay with HLA-A*23:01 (source organism: Variola virus), 7.87; with HLA-A*29:02 (source organism: Variola virus), not above 4.21; with HLA-A*01:01 [7] (source organism: Variola virus), 5.58.
As for SCDFNGGKI, the negative logarithm of the Kd (pKd) was not above 4.11 with HLA-A*30:02 (setting [9]); not above 4.11 with HLA-A*26:01 [6] (setting [9]); not above 4.11 in the assay with HLA-A*24:02 (setting [9]); not above 4.11 in the assay with HLA-A*23:01 (setting [9]); not above 4.10 with HLA-A*29:02 (setting [9]); not above 4.63 with HLA-A*01:01 [7] (setting [9]).
With SMRSVQRNTV, the pKd with HLA-A*30:02 (setting [10]) was 5.10; with HLA-A*26:01 [6] (setting [10]), not above 4.16; with HLA-A*24:02 (setting [10]), not above 4.15; in the assay with HLA-A*23:01 (setting [10]), not above 4.15; with HLA-A*29:02 (setting [10]), not above 4.15; in the assay with HLA-A*01:01 [7] (setting [10]), 5.52.
As to TEHGTTATI, the pKd with HLA-B*40:01 [8] (source organism: Dengue virus 1 Nauru/West Pac/1974) was 7.24.
With TEIQMSSGNL, in the assay with HLA-B*40:01 [8] (setting [11]), the pKd is 8.15.
Turning to TEWCCRSCTL, in the assay with HLA-B*40:01 [8] (setting [11]), the pKd was 8.00.
For the sequence TSTGNYNYKY, the negative-log Kd (pKd) is 7.37 with HLA-A*30:02 (setting [12]); 5.90 in the assay with HLA-A*26:01 [6] (setting [12]); not above 4.15 with HLA-A*24:02 (setting [12]); not above 4.15 with HLA-A*23:01 (setting [12]); 6.53 with HLA-A*29:02 (setting [12]); 7.02 in the assay with HLA-A*01:01 [7] (setting [12]).
Consider VEEQDANFV, for which, in the assay with HLA-B*40:01 [8] (source organism: Dengue virus 1 Brazil/97-11/1997), the pKd is 6.39.
Take VFNNYMPYVF: the pKd with HLA-A*30:02 (setting [12]) is 5.15; with HLA-A*26:01 [6] (setting [12]), not above 4.67; with HLA-A*24:02 (setting [12]), 7.95; with HLA-A*23:01 (setting [12]), 8.08; with HLA-A*29:02 (setting [12]), 8.04; with HLA-A*01:01 [7] (setting [12]) it was not above 4.69.
Turning to WEGGHDLTV, the pKd with HLA-B*40:01 [8] (source organism: Dengue virus 4 Philippines/H241/1956) is 5.73.
In the case of YYCKSHKPPI, the negative-log Kd (pKd) in the assay with HLA-A*30:02 (setting [12]) was 4.94; in the assay with HLA-A*26:01 [6] (setting [12]), not above 4.16; in the assay with HLA-A*24:02 (setting [12]) it was 6.71; with HLA-A*23:01 (setting [12]) it was 6.68; in the assay with HLA-A*29:02 (setting [12]), 5.79; with HLA-A*01:01 [7] (setting [12]), not above 4.32.
With YYPSARIVY, the pKd with HLA-A*30:02 (setting [12]) was not above 4.10; with HLA-A*26:01 [6] (setting [12]), 5.86; in the assay with HLA-A*24:02 (setting [12]), not above 3.98; in the assay with HLA-A*23:01 (setting [12]), not above 4.07; with HLA-A*29:02 (setting [12]), not above 4.05; with HLA-A*01:01 [7] (setting [12]) it was not above 4.34.
